According to patent publication US7875585 (dated 2011):

B1: L-selectin on rat thoracic duct lymphocytes (receptor, UniProt P30836 39-372, looked up)
chain: WTYHYSERSMNWENARKFCKHNYTDLVAIQNKREIEYLEKTLPKNPTYYWIGIRKIGKTWTWVGTNKTLTKEAENWGTGEPNNKKSKEDCVEIYIKRERDSGKWNDDACHKRKAALCYTASCQPESCNRHGECVETINNNTCICDPGYYGPQCQYVIQCEPLKAPELGTMNCIHPLGDFSFQSQCAFNCSEGSELLGNAKTECGASGNWTYLEPICQVIQCMPLAAPDLGTMECSHPLANFSFTSACTFTCSEETDLIGERKTVCRSSGSWSSPSPICQKTKRSFSKIKEGDYNPLFIPVAVMVTAFSGLAFIIWLARRLKKGKKSQERMDDPY
notes: whole, on cells; also called rat L-selectin; TDL L-selectin

Key:
[1] = biological target: L-selectin on lymphocytes (human or rat not given); assay: Stamper-Woodruff assay, lymphocytes on immunoprecipitate spotted on glass
[2] = biological target: L-selectin on lymphocytes (human or rat not given); assay: Stamper-Woodruff assay, equimolar amounts of KG1a CD44 and PSGL-1, 80 rpm
[3] = biological target: L-selectin on lymphocytes (human or rat not given); assay: blot rolling assay, lymphocytes over blotted KG1a membrane protein, 2.3 dynes/cm^2
[4] = biological target: L-selectin on lymphocytes (human or rat not given); assay: cell-based or functional assay
[5] = biological target: L-selectin on rat thoracic duct lymphocytes (rat) (UniProt P30836); assay: cell-based or functional assay
[6] = biological target: L-selectin on human lymphocytes or neutrophils (human) (UniProt P14151); assay: cell-based or functional assay
[7] = biological target: L-selectin on human lymphocytes or neutrophils (human) (UniProt P14151); assay: Stamper-Woodruff assay, human lymphocytes treated with LAM1-3, on immunoprecipitated KG1a CD44
[8] = biological target: PSGL-1 from HL60 cells (human) (UniProt Q14242); assay: fixed HL60 cells treated with PL-1 (10 µg/ml), rat lymphocyte (L-selectin) rolling at 4.4 dynes/cm^2
[9] = biological target: PSGL-1 from KG1a cells (human) (UniProt Q14242); assay: fixed KG1a cells treated with PL-1 (10 µg/ml), rat lymphocyte (L-selectin) rolling at 4.4 dynes/cm^2
[10] = biological target: T1, CD34 immunoprecipitated from KG1a cells (human, UniProt P28906 32-385); assay: Stamper-Woodruff assay, 80 rpm, rat thoracic duct lymphocytes
T1 construct: mature; also called KG1a CD34; CD34 (Molecular Control)
T1 sequence (looked up): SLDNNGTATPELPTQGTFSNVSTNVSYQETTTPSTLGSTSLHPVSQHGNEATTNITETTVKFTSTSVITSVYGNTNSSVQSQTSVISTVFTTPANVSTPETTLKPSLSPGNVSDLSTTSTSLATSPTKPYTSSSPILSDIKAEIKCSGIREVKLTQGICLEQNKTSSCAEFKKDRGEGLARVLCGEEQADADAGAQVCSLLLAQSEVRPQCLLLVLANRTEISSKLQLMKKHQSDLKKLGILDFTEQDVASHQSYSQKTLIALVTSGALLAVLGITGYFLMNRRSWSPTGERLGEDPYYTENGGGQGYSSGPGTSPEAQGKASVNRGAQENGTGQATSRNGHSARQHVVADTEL
Protocol: (§1) Lymphocytes (10^7/ml RPMI-1640 without NaBicarbonate/5'/oFBS) were overlayed onto these fixed immunoprecipitates and incubated on an orbital shaker at 80 rpm for 30 min. at 4° C. The number of adherent lymphocytes was quantified by light microscopy using an ocular grid under 100× magnification (a minimum of 5 fields/slide, 2 slides/experiment, and 3 separate experiments). Data were presented as the mean number of bound lymphocytes±standard deviation. KG1a CD34 and L-selectin control immunoprecipitates were also tested in this manner. To verify the dependence for sialic acid, glutaraldehyde-fixed spots were treated with *Vibrio cholerae* neuraminidase (0.1U/ml RPMI-1640 without NaBicarbonate/2% FBS for 1 hr at 37° C.). In addition, to verify that cellular adhesion was dependent on L-selectin, all assays included negative controls, in which lymphocytes were treated with PMA (50 ng/ml for 30 min at 37° C.) or functional blocking antibodies (anti-rat-L-selectin moAb HRL-1 or anti-human L-selectin moAb LAM1-3;10 µg/ml), or lymphocyte suspensions contained 5 mM EDTA.
(§2) [2]The average number of bound lymphocytes from 5 fields of view at 100x mag. from duplicate slides and a minimum of three experiments. […]

[11] = biological target: B1; assay: as above
Protocol: as §1, §2

[12] = biological target: T2, human E-selectin on CHO-E cells (human, UniProt P16581 22-610); assay: blot rolling assay, CHO-E cells over blotted HL60 membrane protein
T2 construct: whole, on cells; also called CD62E
T2 sequence (looked up): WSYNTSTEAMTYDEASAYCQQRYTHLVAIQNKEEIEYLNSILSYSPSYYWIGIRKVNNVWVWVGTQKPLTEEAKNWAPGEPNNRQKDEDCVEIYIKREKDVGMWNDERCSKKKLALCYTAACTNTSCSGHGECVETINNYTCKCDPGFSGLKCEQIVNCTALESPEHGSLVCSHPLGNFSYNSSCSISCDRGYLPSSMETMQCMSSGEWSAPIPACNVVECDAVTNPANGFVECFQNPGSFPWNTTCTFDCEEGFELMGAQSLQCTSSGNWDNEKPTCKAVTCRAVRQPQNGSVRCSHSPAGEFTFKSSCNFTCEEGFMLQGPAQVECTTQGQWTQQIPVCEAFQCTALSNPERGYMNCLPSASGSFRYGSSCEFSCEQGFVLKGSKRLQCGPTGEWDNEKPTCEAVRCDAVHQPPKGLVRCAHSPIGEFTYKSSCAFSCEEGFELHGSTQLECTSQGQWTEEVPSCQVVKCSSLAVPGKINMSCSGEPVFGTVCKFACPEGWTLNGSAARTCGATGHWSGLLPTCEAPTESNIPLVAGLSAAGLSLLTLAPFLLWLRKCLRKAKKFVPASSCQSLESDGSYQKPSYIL
Protocol: The blot rolling assay was performed as previously described (Dimitroff et al., 2000). Briefly, CHO-E, CHO-P or CHO-Mock transfectants were isolated as described above, washed twice in HBSS and suspended at 10^7/ml in HBSS/10 mM HEPES/2mMCaCl_2 (H/H/Ca++)/10% glycerol. […] The blots were then placed in the parallel-plate flow chamber, and CHO transfectants (2×10^6/ml) were perfused into the chamber. After allowing the cells to come in contact with the blotting membrane, the flow rate was adjusted to exert a shear stress of 3.8 dynes/cm^2. The viscosity of 10% glycerol adhesion assay medium was considered in the calculation of shear stress values. The number of cells rolling on and between each immunostained banding region was quantified under 100× magnification within each field of view on the video monitor using molecular weight markers (Kaleidoscope Molecular Weight Markers, Bio-Rad Lab.; See Blue® from Novex, Inc.) as guides to help align and visualize the apparent molecular weights of the proteins of interest. A minimum of 3 experiments was performed and results were expressed as the mean±SD of cell rolling/field at 100× magnification. […]

hematopoietic cell E-selectin/L-selectin ligand (HCELL), the CD44 glycoform of KG1a cells (from UniProt P16070 21-742)
bound cells/field (bound cells/field) [1]: 362 | fold lymphocyte binding compared with PSGL-1 [2]: < 10 fold | fold L-selectin ligand activity compared to other bands [3]: < 6 fold | L-selectin-mediated lymphocyte adherence to KG1a cells against HL60 cells at 80 rpm, Stamper-Woodruff assay [4]: 10 fold | frequency of rolling lymphocytes on KG1a cells against HL60 cells, parallel-plate flow chamber [4]: < 5 fold | % Control Mean Lymphocyte Binding; KG1a Cells + mocarhagin (% of untreated control) [5]: 110 | % Control Mean Lymphocyte Binding; KG1a Cells +Neur. + DMSO (% of untreated control) [5]: 103 | % Control Mean Lymphocyte Binding; KG1a Cells +Neur. + Tunicamycin (15 µg/ml) (% of untreated control) [5]: 34.3 | % Control Mean Lymphocyte Binding; KG1a Cells +OSGE (60 µg/ml) (% of untreated control) [5]: 104 | % Control Mean Lymphocyte Binding; KG1a Cells +neuraminidase (Neur.) (0.1 U/ml) (% of untreated control) [5]: 0.3 | L-selectin-mediated neutrophil rolling on KG1a cells against HL60 cells, parallel-plate flow chamber [6]: 4 fold

anti-human L-selectin monoclonal antibody LAM1-3
bound cells/field left after the antibody (bound cells/field) [7]: < 10

anti-PSGL-1 monoclonal antibody PL-1
% Control Mean Lymphocyte Binding (% of untreated control) [8]: 62.5 | % Control Mean Lymphocyte Binding (% of untreated control) [9]: 105

B1
binding result [10]: no binding

B2: L-selectin immunoprecipitated from KG1a cells (receptor, human, UniProt P14151 39-372, looked up)
chain: WTYHYSEKPMNWQRARRFCRDNYTDLVAIQNKAEIEYLEKTLPFSRSYYWIGIRKIGGIWTWVGTNKSLTEEAENWGDGEPNNKKNKEDCVEIYIKRNKDAGKWNDDACHKLKAALCYTASCQPWSCSGHGECVEIINNYTCNCDVGYYGPQCQFVIQCEPLEAPELGTMDCTHPLGNFSFSSQCAFSCSEGTNLTGIEETTCGPFGNWSSPEPTCQVIQCEPLSAPDLGIMNCSHPLASFSFTSACTFICSEGTELIGKKKTICESSGIWSNPSPICQKLDKSFSMIKEGDYNPLFIPVAVMVTAFSGLAFIIWLARRLKKGKKSKRSMNDPY
notes: mature; also called L-selectin (Molecular Control)
binding result [11]: no binding

B3: PSGL-1 from HL60 cells (ligand, human, UniProt Q14242 42-412, looked up)
chain: QATEYEYLDYDFLPETEPPEMLRNSTDTTPLTGPGTPESTTVEPAARRSTGLDAGGAVTELTTELANMGNLSTDSAAMEIQTTQPAATEAQTTQPVPTEAQTTPLAATEAQTTRLTATEAQTTPLAATEAQTTPPAATEAQTTQPTGLEAQTTAPAAMEAQTTAPAAMEAQTTPPAAMEAQTTQTTAMEAQTTAPEATEAQTTQPTATEAQTTPLAAMEALSTEPSATEALSMEPTTKRGLFIPFSVSSVTHKGIPMAASNLSVNYPVGAPDHISVKQCLLAILILALVATIFFVCTVVLAVRLSRKGHMYPVRNYSPTEMVCISSLLPDGGEGPSATANGGLSKAKSPGLTPEPREDREGDDLTLHSFLP
modifications: HECA-452-reactive glycans
notes: mature; also called HL60 PSGL-1; PSGL-1/CLA
binding result [12]: binds
